In PMC3998727 (Nature medicine, 2012):

Tests used:
DN kidney [1] = test: Advanced diabetic nephropathy, captopril and THR–123 combination; assay type: in vivo, mice; conditions: eight months DN
[2] = tested on: tubular epithelial cells (TECs; NP–1 cells); test: Hypoxia induced apoptosis of TECs; assay type: cell-based; conditions: Annexin V; NP–1 cells in hypoxia
DN kidney [3] = test: Streptozotocin–induced diabetic nephropathy; assay type: in vivo, CD–1 mice
TECs (NP–1 cells) = test: Reversal of TGF-β and EGF induced EMT in TECs; assay type: cell-based; conditions: TECs after 48 hours of incubation with TGF-β and EGF

| Molecule | EMT program (DN kidney [1]) | macrophage infiltration (DN kidney [1]; Mac–1) | hypoxia induced apoptosis of TECs [2] | mesangium expansion (DN kidney [3]; STZ–induced six month DN, BMP7 1–6 months, THR–123 5–6 months treatment) | induction of an EMT program (DN kidney [3]; six months DN) | renal dysfunction (blood urea nitrogen) (DN kidney [3]; six months DN) | macrophage infiltration (DN kidney [3]; six months DN, Mac–1, F4/80) | reversal of TGF-β–induced EMT (TECs (NP–1 cells)) |
| --- | --- | --- | --- | --- | --- | --- | --- | --- |
| C[C@H](CS)C(=O)N1CCC[C@H]1C(=O)O [CPR, captopril] | inhibited | inhibited macrophage infiltration |  |  |  |  |  |  |
| BMP7: Bone morphogenetic protein–7, member of the TGF-β superfamily, natural ligand of Alk3 (protein, UniProt P18075 293-431, looked up) Bone morphogenetic protein 7: STGSKQRSQNRSKTPKNQEALRMANVAENSSSDQRQACKKHELYVSFRDLGWQDWIIAPEGYAAYYCEGECAFPLNSYMNATNHAIVQTLVHFINPETVPKPCCAPTQLNAISVLYFDDSSNVILKKYRNMVVRACGCH |  |  | inhibited | inhibited mesangium expansion | inhibited induction of an EMT program | significantly reversed renal dysfunction | reduced macrophage infiltration | reversed |
